# Measurements as given in patent publication US6348586.
# Biological target: human CCR5 transiently expressed on CCC/CD4 cells (human) (UniProt P51681)
# Test: cell-based or functional assay
# Details: scale: fraction of the reverse-construct negative control
# Sequence of UniProt P51681 (P51681 whole entry): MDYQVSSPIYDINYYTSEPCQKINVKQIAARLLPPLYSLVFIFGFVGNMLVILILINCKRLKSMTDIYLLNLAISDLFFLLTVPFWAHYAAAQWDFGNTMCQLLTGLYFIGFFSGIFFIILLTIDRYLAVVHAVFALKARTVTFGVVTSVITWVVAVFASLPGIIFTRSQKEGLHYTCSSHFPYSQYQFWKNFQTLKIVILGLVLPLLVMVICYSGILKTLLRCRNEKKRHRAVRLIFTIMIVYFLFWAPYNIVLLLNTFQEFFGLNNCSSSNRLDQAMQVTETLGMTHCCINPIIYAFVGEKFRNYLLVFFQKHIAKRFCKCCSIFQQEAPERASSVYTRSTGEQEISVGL
substance,measurement,value
KSHV viral macrophage inflammatory protein I (vMIP-I) encoded by ORF K6 (ligand),NSI HIV-1 foci generation (immunostaining for retroviral antigen) in CCC/CD4 cells cotransfected with CCR5 and vMIP-I,< 0.5
